According to paper PMC7614784, “Structure and function of the RAD51B-RAD51C-RAD51D-XRCC2 tumour suppressor” (Nature, 2023):

Key:
Settings in all cases: protein: recombinant; tags: N-terminal TwinStrep-TEV on XRCC2, cleaved; copies: 1;1;1;1; label: 5'-FAM
[1] = target: T1, B(R231A)CDX2 (Homo sapiens, UniProt O15315;O43502;O75771;O43543 1-345;1-376;1-328;1-280, R231A); assay: fluorescence anisotropy; 1 mM ATP; similar to WT; FA: protein in 25 mM HEPES pH 7.5, 10% glycerol, 2.5 mM MgCl2, 0.25 mM TCEP, 150 mM NaCl mixed 1:1 with oligo in HMT buffer, 50 mM NaCl (final ~100 mM NaCl, 5%)
T1 sequence 1: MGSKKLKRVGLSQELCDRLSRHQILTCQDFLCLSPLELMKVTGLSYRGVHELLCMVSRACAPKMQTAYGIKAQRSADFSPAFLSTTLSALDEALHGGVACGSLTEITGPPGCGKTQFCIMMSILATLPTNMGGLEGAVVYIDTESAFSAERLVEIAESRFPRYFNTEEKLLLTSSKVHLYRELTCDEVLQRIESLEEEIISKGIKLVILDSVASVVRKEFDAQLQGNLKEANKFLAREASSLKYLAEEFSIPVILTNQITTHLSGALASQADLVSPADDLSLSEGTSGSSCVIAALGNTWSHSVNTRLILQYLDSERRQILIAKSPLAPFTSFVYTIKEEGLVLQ
T1 sequence 2: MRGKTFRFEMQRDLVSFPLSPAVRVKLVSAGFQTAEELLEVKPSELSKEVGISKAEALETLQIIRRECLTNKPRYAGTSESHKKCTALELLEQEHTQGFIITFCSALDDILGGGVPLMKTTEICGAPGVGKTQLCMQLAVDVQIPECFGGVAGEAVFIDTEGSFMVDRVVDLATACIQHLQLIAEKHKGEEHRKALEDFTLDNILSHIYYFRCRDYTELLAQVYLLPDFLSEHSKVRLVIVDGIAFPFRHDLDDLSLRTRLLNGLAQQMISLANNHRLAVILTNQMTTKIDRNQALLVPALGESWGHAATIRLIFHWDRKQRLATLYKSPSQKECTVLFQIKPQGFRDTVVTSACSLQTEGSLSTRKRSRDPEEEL
T1 sequence 3: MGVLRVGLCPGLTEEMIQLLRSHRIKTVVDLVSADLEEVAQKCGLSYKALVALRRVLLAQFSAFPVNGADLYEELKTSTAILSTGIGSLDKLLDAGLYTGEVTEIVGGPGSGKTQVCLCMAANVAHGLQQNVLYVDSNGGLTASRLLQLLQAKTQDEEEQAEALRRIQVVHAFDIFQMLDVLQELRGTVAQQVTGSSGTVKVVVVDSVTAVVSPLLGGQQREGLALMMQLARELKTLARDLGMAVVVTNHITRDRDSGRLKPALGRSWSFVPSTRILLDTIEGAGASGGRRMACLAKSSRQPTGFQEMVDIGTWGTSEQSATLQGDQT
T1 sequence 4: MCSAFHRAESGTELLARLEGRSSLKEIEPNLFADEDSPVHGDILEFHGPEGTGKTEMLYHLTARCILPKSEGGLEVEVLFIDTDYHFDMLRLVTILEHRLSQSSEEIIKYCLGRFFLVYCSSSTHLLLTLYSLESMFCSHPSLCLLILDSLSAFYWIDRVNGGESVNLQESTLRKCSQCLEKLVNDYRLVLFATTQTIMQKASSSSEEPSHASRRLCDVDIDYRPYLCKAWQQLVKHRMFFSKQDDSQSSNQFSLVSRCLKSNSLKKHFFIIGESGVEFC

[2] = target: T2, B(R217A)CDX2 (Homo sapiens, UniProt O15315;O43502;O75771;O43543 1-345;1-376;1-328;1-280, R217A); assay: as above
T2 sequence 1: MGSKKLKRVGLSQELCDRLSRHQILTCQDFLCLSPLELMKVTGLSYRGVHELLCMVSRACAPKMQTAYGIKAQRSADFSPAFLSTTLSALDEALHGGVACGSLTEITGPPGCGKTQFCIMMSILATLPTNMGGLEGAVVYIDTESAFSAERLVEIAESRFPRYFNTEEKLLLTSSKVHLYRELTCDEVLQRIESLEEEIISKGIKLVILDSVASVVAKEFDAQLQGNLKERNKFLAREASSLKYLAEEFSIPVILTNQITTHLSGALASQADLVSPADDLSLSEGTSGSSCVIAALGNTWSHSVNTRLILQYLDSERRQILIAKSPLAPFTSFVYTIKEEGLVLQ
T2 sequence 2: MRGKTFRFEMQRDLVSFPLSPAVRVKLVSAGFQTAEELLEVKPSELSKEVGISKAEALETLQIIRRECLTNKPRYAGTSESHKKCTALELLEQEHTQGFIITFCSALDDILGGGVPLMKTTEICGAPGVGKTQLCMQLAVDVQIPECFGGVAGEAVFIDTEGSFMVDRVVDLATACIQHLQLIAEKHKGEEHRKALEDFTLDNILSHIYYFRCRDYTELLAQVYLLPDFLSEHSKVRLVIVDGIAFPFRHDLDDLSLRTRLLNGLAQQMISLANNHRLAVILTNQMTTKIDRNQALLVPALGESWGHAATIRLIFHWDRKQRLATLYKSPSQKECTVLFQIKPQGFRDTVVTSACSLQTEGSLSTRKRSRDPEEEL
T2 sequence 3: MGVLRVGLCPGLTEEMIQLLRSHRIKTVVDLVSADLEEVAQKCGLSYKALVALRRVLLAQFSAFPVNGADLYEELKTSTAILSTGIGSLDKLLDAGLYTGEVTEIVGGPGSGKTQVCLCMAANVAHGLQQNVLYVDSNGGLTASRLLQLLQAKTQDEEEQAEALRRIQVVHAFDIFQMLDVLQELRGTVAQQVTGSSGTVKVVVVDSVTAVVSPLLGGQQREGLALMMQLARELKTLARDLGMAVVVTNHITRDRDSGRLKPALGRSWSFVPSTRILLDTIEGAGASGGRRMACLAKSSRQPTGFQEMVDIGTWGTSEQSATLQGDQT
T2 sequence 4: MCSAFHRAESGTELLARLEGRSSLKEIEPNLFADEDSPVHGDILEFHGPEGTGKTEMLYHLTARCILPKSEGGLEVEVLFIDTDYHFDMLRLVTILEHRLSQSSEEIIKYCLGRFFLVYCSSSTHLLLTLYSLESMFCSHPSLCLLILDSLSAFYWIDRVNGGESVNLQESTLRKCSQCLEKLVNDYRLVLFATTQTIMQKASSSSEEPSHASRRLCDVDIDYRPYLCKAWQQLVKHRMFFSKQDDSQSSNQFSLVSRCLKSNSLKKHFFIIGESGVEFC

[3] = target: T3, BCD(R221A)X2 (Homo sapiens, UniProt O15315;O43502;O75771;O43543 1-345;1-376;1-328;1-280, R221A); assay: fluorescence anisotropy; 1 mM ATP; minimal effect; FA: protein in 25 mM HEPES pH 7.5, 10% glycerol, 2.5 mM MgCl2, 0.25 mM TCEP, 150 mM NaCl mixed 1:1 with oligo in HMT buffer, 50 mM NaCl (final ~100 mM NaCl, 5%)
T3 sequence 1: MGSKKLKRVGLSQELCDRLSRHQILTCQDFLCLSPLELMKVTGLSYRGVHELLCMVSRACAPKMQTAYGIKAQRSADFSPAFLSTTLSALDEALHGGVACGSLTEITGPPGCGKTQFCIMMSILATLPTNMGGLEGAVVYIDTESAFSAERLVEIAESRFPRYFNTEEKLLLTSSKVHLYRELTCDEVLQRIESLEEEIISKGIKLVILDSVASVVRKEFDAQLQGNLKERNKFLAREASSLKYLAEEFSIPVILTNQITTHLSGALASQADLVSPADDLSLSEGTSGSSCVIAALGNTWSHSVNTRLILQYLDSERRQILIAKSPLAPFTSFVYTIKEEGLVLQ
T3 sequence 2: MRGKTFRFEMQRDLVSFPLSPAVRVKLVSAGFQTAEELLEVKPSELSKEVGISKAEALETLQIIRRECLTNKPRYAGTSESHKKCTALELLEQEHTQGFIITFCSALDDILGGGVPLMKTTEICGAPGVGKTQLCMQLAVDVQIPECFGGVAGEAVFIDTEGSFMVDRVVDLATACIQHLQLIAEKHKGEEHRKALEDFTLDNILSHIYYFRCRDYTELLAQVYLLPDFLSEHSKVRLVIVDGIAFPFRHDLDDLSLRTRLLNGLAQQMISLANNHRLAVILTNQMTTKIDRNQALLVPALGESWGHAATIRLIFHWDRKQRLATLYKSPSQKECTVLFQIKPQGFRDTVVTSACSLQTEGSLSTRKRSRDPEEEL
T3 sequence 3: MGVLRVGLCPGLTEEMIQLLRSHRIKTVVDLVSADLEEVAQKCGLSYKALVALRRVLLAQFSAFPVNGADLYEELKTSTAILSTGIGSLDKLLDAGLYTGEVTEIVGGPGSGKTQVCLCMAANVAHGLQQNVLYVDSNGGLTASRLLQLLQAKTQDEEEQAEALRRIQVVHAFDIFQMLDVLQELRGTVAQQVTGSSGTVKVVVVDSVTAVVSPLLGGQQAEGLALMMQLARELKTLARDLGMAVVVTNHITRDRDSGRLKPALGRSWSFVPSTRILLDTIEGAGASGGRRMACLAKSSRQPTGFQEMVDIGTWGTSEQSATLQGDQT
T3 sequence 4: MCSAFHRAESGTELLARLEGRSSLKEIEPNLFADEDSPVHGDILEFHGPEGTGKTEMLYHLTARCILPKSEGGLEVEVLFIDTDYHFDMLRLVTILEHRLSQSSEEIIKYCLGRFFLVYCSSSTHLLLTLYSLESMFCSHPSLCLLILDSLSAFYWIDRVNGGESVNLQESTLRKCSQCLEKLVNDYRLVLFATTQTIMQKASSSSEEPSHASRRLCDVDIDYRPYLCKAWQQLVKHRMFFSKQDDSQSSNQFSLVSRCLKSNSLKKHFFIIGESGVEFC

Measured: binding result

TATCGAATCCGTCTA (ssDNA) [FAM-dN15nt]
binds: all assays above
